Values joined by “and” are separate entries in the source; they are usually repeats but may differ in a detail not shown here. Equal entries are not always repeated. No end group written: not given here.

T1: recombinant His-tagged Der p1 (dust mite, UniProt P08176 99-320, limits assumed)
T1 construct: Recombinant His-tagged protein made by the applicant; also called Der p1-His; Der pl; not shown: His tag
T1 sequence (looked up): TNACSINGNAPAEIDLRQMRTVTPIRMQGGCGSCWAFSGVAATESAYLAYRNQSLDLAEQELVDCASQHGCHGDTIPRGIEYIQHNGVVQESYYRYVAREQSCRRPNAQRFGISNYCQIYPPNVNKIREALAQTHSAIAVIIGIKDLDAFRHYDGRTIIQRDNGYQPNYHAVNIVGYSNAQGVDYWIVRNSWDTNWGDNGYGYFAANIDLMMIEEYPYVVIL

T2: recombinant Fel d1-His (Felis catus, UniProt P30438+P30440)
T2 construct: His; made in house
T2 sequence (P30438 23-92): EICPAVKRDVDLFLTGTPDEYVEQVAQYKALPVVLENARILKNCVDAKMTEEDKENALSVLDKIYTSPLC
T2 sequence (P30440 18-109): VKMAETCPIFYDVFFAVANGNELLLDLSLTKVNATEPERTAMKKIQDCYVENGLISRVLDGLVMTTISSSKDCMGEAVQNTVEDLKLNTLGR

B1: SDAB22110-2-D3 (peptide)
peptide: HSGPECG
modifications: also: biotinylated, site not given here
notes: 7-amino acid peptide from a phage display library
B2: SDAB22110-2-C3 (peptide)
peptide: YPTWAYR
modifications: also: biotinylated, site not given here
notes: as for B1
B3: SDAB22110-2-F1 (peptide)
peptide: AVVSFYP
modifications: also: biotinylated, site not given here
notes: as for B1
B4: SDAB22110-2-D9 (peptide)
peptide: LTGYGMS
modifications: also: biotinylated, site not given here
notes: as for B1
B5: SDAB22110-2-B2 (peptide)
peptide: GIHMALM
modifications: also: biotinylated, site not given here
notes: as for B1
B6: SDAB22110-2-G1 (peptide)
peptide: VVAFGIS
modifications: also: biotinylated, site not given here
notes: as for B1
B7: Der p1-His: recombinant His-tagged dust mite allergen Der p1 (protein)
chain: T1 sequence (looked up)
modifications: left off: small tags and cut ends
B8: 370VH + 378VL: known Fel D1 positive control antibody, heavy chain SEQ ID NO: 64, light chain SEQ ID NO: 65 (antibody, V domains shown)
VH: EVQLVESGGGLAQPGGSLRLSCAASGFTFNNYAMTWVRQAPGKGLDWVSAISDSGRSTFSADSVKGRFTISRDNSKNTLYLQMDSLRAEDTALYYCAKHRNWNYPVFDYWGQGTLVTVSS
VL: DIQLTQSPSFLSASVGDRVTITCWASQGISSYLAWYQQKPGKAPKLLIYSASTLQSGVPSRFSGSGSGTEFTLTISSLQPEDFATYYCQQLNSYPFTFGPGTKVDIK

The target of the first test is T1, recombinant His-tagged Der p1. The test can be described thus: ELISA, Der p1 on plate, biotinylated peptide at 1.111, duplicate 2.
Conditions: not given
How it is done:
(§1) An ELISA was used to validate identified peptides. Der p1 was bound to the bottom of a plate. Different concentrations of the chosen (biotinylated) peptides were added and then washed. Then, HRP-streptavidin (which binds to the biotin) was added and an OD at 450 nm is measured. Duplicate measurements are separated by commas.
In general terms: ELISA stands for enzyme-linked immunosorbent assay.
With B1, the OD450 was determined as 2.25 OD450.
The same measure, in the same setting: the same measure for B2: 0.102 OD450.
As for B3, the OD450 amounted to 0.125 OD450.
B4: the OD450 was 0.102 OD450.
As to B5, the OD450 was 0.089 OD450.
In the case of B6, the OD450 is 0.109 OD450.

For a further test the target is unchanged. The test can be described thus: ELISA, Der p1 on plate, biotinylated peptide at 10, duplicate 2.
Conditions: not given
As for the experimental part: as §1
For the molecule B1, the OD450 was found to be 3.57 OD450.
Regarding B2, the OD450 was 0.376 OD450.
Turning to B3, the OD450 was 0.516 OD450.
On to B4, for which the OD450 is 0.357 OD450.
Take B5: the OD450 came to 0.289 OD450.
In the case of B6, the OD450 turned out to be 0.293 OD450.

The target is the same in a further test. The test can be described thus: ELISA, Der p1 on plate, biotinylated peptide at 0.123, duplicate 2.
Conditions: not given
As for the experimental part:
as §1
As to B1, the OD450 was 0.906 OD450.
Still for that read-out and setting: the same measure for B2: 0.065 OD450; for B3: 0.075 OD450.
As for B4, the OD450 turned out to be 0.068 OD450.
As to B5, the OD450 amounted to 0.066 OD450.
On the same count and under the same terms, to B6 belongs 0.073 OD450.

Another test shares this target. The test can be described thus: ELISA, Der p1 on plate, biotinylated peptide at 3.333, duplicate 2.
Conditions: not given
How it is done:
as §1
B1: the OD450 worked out at 2.88 OD450.
Take B2: the OD450 was 0.191 OD450.
On the same count and under the same terms, the same measure for B3: 0.209 OD450; for B4: 0.154 OD450; for B5: 0.136 OD450.
The same measure, in the same setting: the same measure for B6: 0.145 OD450.

The target is the same in the next test. The test can be described thus: ELISA, Der p1 on plate, biotinylated peptide at 0.370, duplicate 1.
Conditions: not given
How it is done:
as §1
For B1, the OD450 turned out to be 1.37 OD450.
On the same count and under the same terms, to B2 belongs 0.072 OD450.
The same measure, in the same setting: the same measure for B3: 0.076 OD450; for B4: 0.068 OD450.
With B5, the OD450 was 0.083 OD450.
Still for that read-out and setting: to B6 belongs 0.088 OD450.

A further test has the same target. The test can be described thus: ELISA, Der p1 on plate, biotinylated peptide at 0.041, duplicate 1.
Conditions: not given
How it is done: as §1
For B1, the OD450 turned out to be 0.468 OD450.
On the same count and under the same terms, to B2 belongs 0.058 OD450; to B3, 0.079 OD450.
Same read-out and setting: to B4 belongs 0.061 OD450; to B5, 0.07 OD450.
On to B6, for which the OD450 came to 0.057 OD450.

In the next test the test system is known Der p1 antibody (clone 10B9). The test can be described thus: Recombinant Der p1-His ELISA binding assay. Particulars: Der p1-His Concentration 0.00064 μg/mL. How it is done: In order to obtain single variable domain on heavy chain, i.e., VHH, specific for dust mite allergen Der p1, a recombinant His-tagged Der p1 was prepared, which reached high purity, as shown via SDS-Page Western blotting in FIG. 8. To confirm this, an ELISA was performed measuring optical density when the recombinant Der p1-His is incubated with a known Der p1 antibody (clone 10B9). As summarized in Table 11, the recombinant Der p1-His was effectively bound by the antibody.
With B7, the “OD at 450 nm” value is 0.13 and 0.12.

The same test, now with this note: Der p1-His Concentration 0.016 μg/mL.
For the molecule B7, the “OD at 450 nm” value was 0.20 and 0.17.

The same test, now with this note: Der p1-His Concentration 0.08 μg/mL.
Take B7: the “OD at 450 nm” value was 0.58 and 0.49.

Still in this test, the particulars now being: Der p1-His Concentration 0.4 μg/mL.
Take B7: the “OD at 450 nm” value is 1.80 and 1.87.

Staying with this test, now noted: Der p1-His Concentration 2 μg/mL.
As for B7, the “OD at 450 nm” value is 4.03 and 4.31.

The test is the same for the next values; noted with them: Der p1-His Concentration 10 μg/mL.
Consider B7, for which the “OD at 450 nm” value was 4.37 and 4.40.

For the next test, the target named is T1, recombinant His-tagged Der p1. The test can be described thus: ELISA, Der p1 on plate, biotinylated peptide at 3.333, duplicate 1.
Conditions: not given
As for the experimental part:
as §1
For the molecule B1, the OD450 stood at 2.77 OD450.
The same measure, in the same setting: to B2 belongs 0.162 OD450; to B3, 0.221 OD450.
On the same count and under the same terms, the same measure for B4: 0.154 OD450; for B5: 0.132 OD450.
As for B6, the OD450 came out at 0.147 OD450.

The next test has the same target. The test can be described thus: ELISA, Der p1 on plate, biotinylated peptide at 10, duplicate 1.
Conditions: not given
As for the experimental part: as §1
Consider B1, for which the OD450 is 3.55 OD450.
Same read-out and setting: the same measure for B2: 0.346 OD450; for B3: 0.479 OD450.
For B4, the OD450 is 0.374 OD450.
Turning to B5, the OD450 amounted to 0.275 OD450.
Turning to B6, the OD450 is 0.323 OD450.

The next test shares this target. The test can be described thus: ELISA, Der p1 on plate, biotinylated peptide at 0.041, duplicate 2.
Conditions: not given
As for the experimental part: as §1
As to B1, the OD450 turned out to be 0.463 OD450.
B2: the OD450 is 0.057 OD450.
As for B3, the OD450 amounted to 0.066 OD450.
On the same count and under the same terms, the same measure for B4: 0.059 OD450.
Still for that read-out and setting: the same measure for B5: 0.061 OD450.
In the case of B6, the OD450 amounted to 0.062 OD450.

For another test the target is unchanged. The test can be described thus: ELISA, Der p1 on plate, biotinylated peptide at 30, duplicate 1.
Conditions: not given
How it is done: as §1
On to B1, for which the OD450 worked out at 4.1 OD450.
The same measure, in the same setting: the same measure for B2: 0.684 OD450.
The same measure, in the same setting: the same measure for B3: 0.938 OD450; for B4: 0.751 OD450.
Still for that read-out and setting: to B5 belongs 0.536 OD450.
Consider B6, for which the OD450 came out at 0.666 OD450.

The next test deals with T2, recombinant Fel d1-His. The test can be described thus: Recombinant Fel D1 His binding assay with positive control antibodies. Particulars: Volume of Fel D1-His 10 μL (concentration ~1 μg/μL). Also noted: species or system cat. How it is done: In order to obtain single variable domain on heavy chain, i.e., VHH, specific for cat allergen Fel D1, a recombinant His-tagged Fel D1 was prepared, which reached high purity, as shown via SDS-Page Western blotting in FIG. 14. To confirm this, an ELISA was performed measuring optical density when the recombinant Fel d1-His is incubated with two known Fel D1 antibodies which are summarized in Table 18. As summarized in Table 19, the recombinant Fel d1-His was effectively bound by both antibodies.
In the case of B8, the “OD450 Using Positive Control” value is 4.47 and 4.44.

Still in this test, the particulars now being: Volume of Fel D1-His 50 μL (concentration ~1 μg/μL).
For B8, the “OD450 Using Positive Control” value is 4.55 and 4.53.

Staying with this test, now noted: Volume of Fel D1-His 100 μL (concentration ~1 μg/μL).
Take B8: the “OD450 Using Positive Control” value amounted to 4.60.

A further test addresses T1, recombinant His-tagged Der p1. The test can be described thus: ELISA, Der p1 on plate, biotinylated peptide at 30, duplicate 2.
Conditions: not given
How it is done:
as §1
Turning to B1, the OD450 came to 4.13 OD450.
On the same count and under the same terms, to B2 belongs 0.748 OD450; to B3, 0.805 OD450.
Still for that read-out and setting: the same measure for B4: 0.771 OD450.
The same measure, in the same setting: the same measure for B5: 0.537 OD450.
With B6, the OD450 stood at 0.629 OD450.

The target is the same in another test. The test can be described thus: ELISA, Der p1 on plate, biotinylated peptide at 0.123, duplicate 1.
Conditions: not given
How it is done: as §1
With B1, the OD450 is 0.866 OD450.
Still for that read-out and setting: the same measure for B2: 0.065 OD450; for B3: 0.073 OD450; for B4: 0.067 OD450.
Consider B5, for which the OD450 was found to be 0.078 OD450.
Still for that read-out and setting: to B6 belongs 0.082 OD450.

The next test has the same target. The test can be described thus: ELISA, Der p1 on plate, biotinylated peptide at 1.111, duplicate 1.
Conditions: not given
As for the experimental part: as §1
With B1, the OD450 came to 2.16 OD450.
In the case of B2, the OD450 is 0.104 OD450.
As to B3, the OD450 amounted to 0.131 OD450.
Turning to B4, the OD450 was determined as 0.095 OD450.
Same read-out and setting: the same measure for B5: 0.089 OD450; for B6: 0.102 OD450.

The next test shares this target. The test can be described thus: ELISA, Der p1 on plate, biotinylated peptide at 0.370, duplicate 2.
Conditions: not given
As for the experimental part: as §1
For the molecule B1, the OD450 was 1.36 OD450.
Same read-out and setting: to B2 belongs 0.066 OD450.
Still for that read-out and setting: the same measure for B3: 0.073 OD450.
The same measure, in the same setting: to B4 belongs 0.078 OD450.
With B5, the OD450 was determined as 0.071 OD450.
Still for that read-out and setting: to B6 belongs 0.082 OD450.

The values are drawn from US20240352105A1, “COMPOSITIONS AND METHODS FOR NEUTRALIZING ANTIGENS” (PACAGEN, INC, priority 2023, published 2024).
